In patent US10040826:

How the values were obtained:
[1] = target: A244 gDΔ11 gp120 (Herpes simplex virus; HIV-1); assay: SPR, Fab amine-coupled to the sensor surface, gp120 flowed
[2] = target: A244 gp120 (no modifications) (HIV-1); assay: as above
A244 Δ11 gp120 (HIV-1) [3] = assay: SPR, mAb captured on anti-Fc surface, monomeric gp120 as analyte
[4] = target: A244 gDΔ11 gp120 (Herpes simplex virus; HIV-1); assay: as above
[5] = target: A244 gp120 (no modifications) (HIV-1); assay: as above
[6] = target: A244 gp120 (no modifications) (HIV-1); assay: SPR
[7] = target: A244 gp120 (no modifications) (HIV-1); assay: SPR titration, binding to 697D mAb (697-30D); A244gDneg293Tmon at [5] to [40], unit inferred; constant labelled kd1
[8] = target: 92TH023 gDΔ11 gp120 (Herpes simplex virus; HIV-1); assay: SPR, not detailed
[9] = target: MN gDΔ11 gp120 (Herpes simplex virus; HIV-1); assay: SPR, not detailed
[10] = target: 92TH023 gp120 (no modifications) (HIV-1); assay: Kd table; row AE.92TH023 gp120, column 697D gD-; method not given
[11] = target: MN gDΔ11 gp120 (Herpes simplex virus; HIV-1); assay: Kd table; row B.MN gp120, column 697D gD+; method not given
[12] = target: MN gp120 (no modifications) (HIV-1); assay: Kd table; row B.MN gp120, column 697D gD-; method not given
A244 Δ11 gp120 (HIV-1) [13] = assay: SPR titration, binding to 697D mAb; A244 gDneg D11 at [2], [4], [6], [10], [25], [50], unit inferred
[14] = target: A244 gDΔ11 gp120 (Herpes simplex virus; HIV-1); assay: SPR titration, binding to 697D mAb (697-30D); A244 gD+ monomer at [10] to [40], unit inferred
[15] = target: A244 gp120 (no modifications) (HIV-1); assay: Kd table; row AE.A244 gp120, column 697D gD-; method not given
A244 Δ11 gp120 (HIV-1) [16] = assay: SPR titration, binding to 697D mAb; A244 gDneg D11 at [2] to [50], unit inferred
[17] = target: A244 gp120 (no modifications) (HIV-1); assay: SPR titration, binding to 697D mAb (697-30D); A244gDneg293Tmon at [5] to [40], unit inferred
[18] = target: A244 gDΔ11 gp120 (Herpes simplex virus; HIV-1); assay: SPR titration, binding to 697D mAb (697-30D); A244 gD+ monomer at [10], [20], [30], [40], unit inferred
[19] = target: 92TH023 gDΔ11 gp120 (Herpes simplex virus; HIV-1); assay: Kd table; row AE.92TH023 gp120, column 697D gD+; method not given
A244 Δ11 gp120 (HIV-1) [20] = assay: SPR
[21] = target: A244 gDΔ11 gp120 (Herpes simplex virus; HIV-1); assay: SPR
[22] = target: A244 gDΔ11 gp120 (Herpes simplex virus; HIV-1); assay: Kd table; row AE.A244 gp120, column 697D gD+; method not given
[23] = target: A244-rgp120 (RV144 vaccine immunogen) (Herpes simplex virus; HIV-1); assay: SPR, mAb captured on anti-Fc surface, gp120 as analyte (FIG. 28)
[24] = target: MN-rgp120 (RV144 vaccine immunogen) (Herpes simplex virus; HIV-1); assay: as above
[25] = target: MN-rgp120 (RV144 vaccine immunogen) (Herpes simplex virus; HIV-1); assay: SPR; 697D captured on anti-Fc surface, RV144 MN-rgp120 injected at 5.0-100 µg/mL; fitted curves
[26] = target: A244-rgp120 (RV144 vaccine immunogen) (Herpes simplex virus; HIV-1); assay: SPR; 697D captured on anti-Fc surface, RV144 A244-rgp120 injected at 5.0-100 µg/mL; fitted curves [lower row]
[27] = target: A244 gp120 (no modifications) (HIV-1); assay: SPR titration, binding to 697D mAb (697-30D); A244gDneg293Tmon at [5], [10], [20], [40], unit inferred; constant labelled ka1

In the case of 697D Fab, the Kd [1] is reported as 690 nM, the fold higher affinity than to unmodified A244 gp120 [1] is reported as 8 fold and the fold higher ka than to A244 gp120 [1] is reported as 10 fold. It also gave a Kd [2] of 5700 nM.
Substance V2 mAb 2158 (antibody) has a Kd (A244 Δ11 gp120 (HIV-1) [3]) of 3.68 nM, a koff (A244 Δ11 gp120 (HIV-1) [3]) of 0.00013 s⁻¹ and a kon (A244 Δ11 gp120 (HIV-1) [3]) of 36500 M⁻¹ s⁻¹. For the same substance, the Kd [4] was 3.7 nM, the koff [4] was 0.0001 s⁻¹ and the kon [4] was 28700 M⁻¹ s⁻¹. It also gave a Kd [5] of 11.2 nM, a koff [5] of 0.00019 s⁻¹ and a kon [5] of 16400 M⁻¹ s⁻¹. It also gave a fold lower affinity than for A244gDΔ11 and A244Δ11 gp120 [6] of 3 fold.
For V2 mAb 697D (antibody), the koff [7] was 0.0063 s⁻¹, the Kd (A244 Δ11 gp120 (HIV-1) [3]) was 157 nM and the koff (A244 Δ11 gp120 (HIV-1) [3]) was 0.00518 s⁻¹. It also gave a kon (A244 Δ11 gp120 (HIV-1) [3]) of 26800 M⁻¹ s⁻¹, a Kd [4] of 218 nM and a koff [4] of 0.00524 s⁻¹. It also gave a kon [4] of 24900 M⁻¹ s⁻¹, a Kd [5] of 1470 nM and a koff [5] of 0.007 s⁻¹. The kon [5] was 4900 M⁻¹ s⁻¹, the fold enhancement of binding against the unmodified protein [8] was 2 to 3 fold and the fold enhancement of binding against the unmodified protein [9] was 2 to 3 fold. For the same substance, the Kd [10] was 1310 nM, the Kd [11] was 488 nM and the Kd [12] was 1070 nM. The kon (A244 Δ11 gp120 (HIV-1) [13]) was 24700 M⁻¹ s⁻¹, the Kd [14] was 162 nM and the koff [14] was 0.0066 s⁻¹. It also gave a Kd [15] of 1000 nM, a Kd (A244 Δ11 gp120 (HIV-1) [16]) of 98.7 nM and a koff (A244 Δ11 gp120 (HIV-1) [16]) of 0.0033 s⁻¹. It also gave a Kd [17] of 1900 nM, a kon [18] of 40000 M⁻¹ s⁻¹ and a Kd [19] of 734 nM. The fold higher affinity than to A244 gp120 (A244 Δ11 gp120 (HIV-1) [20]) was 10 fold, the fold tighter binding than to A244 gp120 with no modifications (A244 Δ11 gp120 (HIV-1) [20]) was 10 fold and the fold higher affinity than to A244 gp120 [21] was 10 fold. For the same substance, the Kd [22] was 180 nM, the Kd [23] was 318 nM and the Kd [24] was 477 nM. For the same substance, the Kd [25] was 318 nM, the Kd [26] was 477 nM and the kon [27] was 3400 M⁻¹ s⁻¹.
